Results from patent publication US20240010684A1 (Bayer, published 2024).
*1 amine or outer side, *2 acyl side, *3 side chain or, on linkers, in order; H or OH if unused. Bridges are numbered along the chain shown (N, C = ends). Where no end group is shown, it is not given here. [ ]: non-standard residue; d: D form. TTDS = 1,13-diamino-4,7,10-trioxatridecan-succinamic acid, O=C(CCC(=O)[*:2])NCCCOCCOCCOCCCN[*:1]; Oic = O=C(O)[C@@H]1C[C@@H]2CCCC[C@@H]2N1; Trx = NC[C@H]1CC[C@H](C(=O)O)CC1; tBuAla = CC(C)(C)C[C@H](N)C(=O)O; PEG4 = NCCOCCOCCOCCOCCC(=O)O; Pen = CC(C)(S)[C@H](N)C(=O)O; Orn = NCCC[C@H](N)C(=O)O; Dab = NCC[C@H](N)C(=O)O; Dap = NC[C@H](N)C(=O)O; Ahx = NCCCCCC(=O)O; Sar = CNCC(=O)O

T1: recombinant human MASP1 (amino acids 297-699, C-terminal His Tag) (human, UniProt P48740 297-699)
T1 sequence: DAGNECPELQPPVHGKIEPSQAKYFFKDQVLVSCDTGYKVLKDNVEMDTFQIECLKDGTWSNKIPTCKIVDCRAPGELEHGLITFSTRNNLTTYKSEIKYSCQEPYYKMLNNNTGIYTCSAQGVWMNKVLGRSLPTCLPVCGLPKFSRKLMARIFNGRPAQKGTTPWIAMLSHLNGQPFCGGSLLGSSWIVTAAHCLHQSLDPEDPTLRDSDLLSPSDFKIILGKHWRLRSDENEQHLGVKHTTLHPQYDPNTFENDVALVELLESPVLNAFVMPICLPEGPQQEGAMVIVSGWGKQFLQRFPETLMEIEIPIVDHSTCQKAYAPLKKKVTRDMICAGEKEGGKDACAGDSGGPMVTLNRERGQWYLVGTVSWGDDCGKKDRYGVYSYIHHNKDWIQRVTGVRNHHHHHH


What was measured:
[1] = molecular target: T1, recombinant human MASP1 (amino acids …); assay: cell-based or functional assay
[2] = molecular target: recombinant human MASP2 (amino acids 297-686, C-terminal His Tag) (human, UniProt O00187 297-686); assay: cell-based or functional assay
recombinant human MASP2 (amino acids 297-686, C-terminal His Tag), sequence (O00187 other isoform, or with tags, fused parts or gaps limits assumed): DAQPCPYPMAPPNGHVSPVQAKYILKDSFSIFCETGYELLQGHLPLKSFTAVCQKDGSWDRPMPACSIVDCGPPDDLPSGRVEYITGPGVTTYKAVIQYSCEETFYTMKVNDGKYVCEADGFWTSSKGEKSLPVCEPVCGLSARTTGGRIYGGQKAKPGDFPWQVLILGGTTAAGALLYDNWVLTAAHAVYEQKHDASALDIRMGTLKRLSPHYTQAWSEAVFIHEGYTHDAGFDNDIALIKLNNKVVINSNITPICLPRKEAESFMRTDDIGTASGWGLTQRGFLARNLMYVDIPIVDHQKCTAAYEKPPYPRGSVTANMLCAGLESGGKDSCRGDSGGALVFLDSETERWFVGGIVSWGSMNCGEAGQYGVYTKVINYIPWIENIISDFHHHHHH

| human MASP1 IC50 [1] [nM] | human MASP2 IC50 [2] [nM] | Binder |
| --- | --- | --- |
| 21 | 24 | [Orn]ICSRS[tBuAla]PPI[Pen]IP (lactam 1-C; disulfide 3-11; also: TFA salt) [Example 71: (Orn)++-IC+SRS-((tBu)A)-PPI-(Pen)+-IP**] |
| 42 | 430 | cyclo([Dap][Dab]ICSRS[tBuAla]PPI[Pen]I) (disulfide 4-12; also: TFA salt) [Example 73: (Dap)**-(Dab)-IC+SRS-((tBu)A)-PPI-(Pen)+-I**] |
| 100 | 110 | cyclo([Ahx]ICSRSLP[Oic]ICI) (disulfide 3-11; also: TFA salt) [Example 95: (Ahx)**-IC+SRSLP-(Oic)-IC+I**] |
| 18 | 91 | [Ahx]GICSRSLP[Oic]I[Pen]IPE-NH2 (disulfide 4-12; lactam N-15; also: TFA salt) [Example 83: (Ahx)**-GIC+SRSLP-(Oic)-I-(Pen)+-IPE++-NH2] |
| 3.1 | 310 | [Orn]AICSRS[tBuAla]PPI[Pen]IPD-NH2 (lactam 1-15; disulfide 4-12; also: TFA salt) [Example 61: (Orn)++-AIC+SRS-((tBu)A)-PPI-(Pen)+-IPD++-NH2] |
| 28 | 170 | cyclo([TTDS]AICSRS[tBuAla]PPI[Pen]IPD) (disulfide 4-12; also: TFA salt) [Example 63: (TTDS)**-AIC+SRS-((tBu)A)-PPI-(Pen)+-IPD**] |
| 22 | 45 | [Ahx][dA]ICSRSLP[Oic]I[Pen]IPE-NH2 (disulfide 4-12; lactam N-15; also: HCl salt) [Example 79: (Ahx)**-aIC+SRSLP-(Oic)-I-(Pen)+-IPE++-NH2 (HCl Salt)] |
| 22 | 540 | G[Trx]GICSRS[tBuAla]PPI[Pen]IPD-NH2 (disulfide 5-13; lactam N-16; also: TFA salt) [Example 62: G**-(TXA)-GIC+SRS-((tBu)A)-PPI-(Pen)+-IPD++-NH2] |
| 150 | 370 | cyclo([Ahx]GICSRSLPPICIP[dD]) (disulfide 4-12; also: TFA salt) [Example 16: (Ahx)**-GIC+SRSLPPIC+IPd**] |
| 26 | 88 | cyclo(AGGICSRSLPPICIP[dD]) (disulfide 5-13; also: TFA salt) [Example 17: A**GGIC+SRSLPPIC+IPd**] |
| 49 | 540 | cyclo([Orn]GICSRS[tBuAla]PPI[Pen]I) (disulfide 4-12; also: TFA salt) [Example 65: (Orn)**-GIC+SRS-((tBu)A)-PPI-(Pen)+-I**] |
| 46 | 700 | cyclo([Dap]ICSRSLP[Oic]I[Pen]IP) (disulfide 3-11; also: TFA salt) [Example 87: (Dap)**-IC+SRSLP-(Oic)-I-(Pen)+-IP**] |
| 9.8 | 110 | EGICSRSLP[Oic]I[Pen]IPK-NH2 (lactam 1-15; disulfide 4-12; also: TFA salt) [Example 90: E++GIC+SRSLP-(Oic)-I-(Pen)+-IPK++-NH2] |
| 1000 | 1000 | cyclo(ICSRS[tBuAla]PPI[Pen]IP) (disulfide 2-10; also: HCl salt) [Example 88: I**C+SRS-((tBu)A)-PPI-(Pen)+-IP** (HCl Salt)] |
| 29 | 71 | EGICSRSLP[Oic]I[Pen]IPDK-NH2 (lactam 1-16; disulfide 4-12; also: TFA salt) [Example 91: E++GIC+SRSLP-(Oic)-I-(Pen)+-IPDK++-NH2] |
| 1000 | 1000 | [Dap]ICSRSLP[Oic]I[Pen]IP (lactam 1-C; disulfide 3-11; also: TFA salt) [Example 85: (Dap)++-IC+SRSLP-(Oic)-I-(Pen)+-IP**] |
| 69 | 700 | [Ahx]GAICSRSLP[Oic]I[Pen]IPE-NH2 (disulfide 5-13; lactam N-16; also: TFA salt) [Example 82: (Ahx)**-GAIC+SRSLP-(Oic)-I-(Pen)+-IPE++-NH2] |
| 120 | 130 | cyclo([Ahx]GICSRSLPPICIPD) (disulfide 4-12; also: HCl salt) [Example 94: (Ahx)**-GIC+SRSLPPIC+IPD** (HCl Salt)] |
| 15 | 87 | [Ahx]G[dA]ICSRSLP[Oic]I[Pen]IPE-NH2 (disulfide 5-13; lactam N-16; also: TFA salt) [Example 84: (Ahx)**-GaIC+SRSLP-(Oic)-I-(Pen)+-IPE++-NH2] |
| 11 | 6.8 | [dK]ICSRS[tBuAla]PPI[Pen]I (lactam 1-C; disulfide 3-11; also: TFA salt) [Example 80: k++-IC+SRS-((tBu)A)-PPI-(Pen)+-I**] |
| 170 | 240 | cyclo([PEG4]GICSRSLPPICIPD) (disulfide 4-12; also: TFA salt) [Example 14: (PEG3(16 atoms))**-GIC+SRSLPPIC+IPD**] |
| 120 | 300 | cyclo(GGICSRSLPPICIPD) (disulfide 4-12; also: TFA salt) [Example 15: G**GIC+SRSLPPIC+IPD**] |
| 3.25 | 150 | KICSRS[tBuAla]PPI[Pen]I (lactam 1-C; disulfide 3-11; also: TFA salt) [Example 67: K++-IC+SRS-((tBu)A)-PPI-(Pen)+-I**] |
| 10 | 7 | [dK]ICSRS[tBuAla]PPI[Pen]I (lactam 1-C; disulfide 3-11; also: HCl salt) [Example 78: k++-IC+SRS-((tBu)A)-PPI-(Pen)+-I** (HCl Salt)] |
| 18 | 230 | [3‑azido‑L‑alanine]GAICSRS[tBuAla]PPICIP[L‑propargylglycine]-NH2 (triazole 1-16; disulfide 5-13; also: TFA salt) |
| 11 | 210 | [Ahx][Sar]AICSRSLP[Oic]I[Pen]IPE-NH2 (disulfide 5-13; lactam N-16; also: TFA salt) [Example 77: (Ahx)**-((N-Me)G)-AIC+SRSLP-(Oic)-I-(Pen)+-IPE++-NH2] |
| 14 | 160 | [Ahx]AICSRSLP[Oic]I[Pen]IPE-NH2 (disulfide 4-12; lactam N-15; also: TFA salt) [Example 74: (Ahx)**-AIC+SRSLP-(Oic)-I-(Pen)+-IPE++-NH2] |
| 27 | 1000 | [Dap][Dap]ICSRSLP[Oic]I[Pen]IP (lactam 1-C; disulfide 4-12; also: TFA salt) [Example 86: (Dap)++-(Dap)-IC+SRSLP-(Oic)-I-(Pen)+-IP**] |
| 8.1 | 22 | [Orn]ICSRS[tBuAla]PPI[Pen]I (lactam 1-C; disulfide 3-11; also: TFA salt) [Example 66: (Orn)++-IC+SRS-((tBu)A)-PPI-(Pen)+-I**] |
